The values below come from patent US20250011363A1, “OPTIMIZED SHORTENED PEPTIDE THAT BINDS TO ACETYLCHOLINE RECEPTOR, AND USE THEREOF” (SKINMED CO., LTD., priority 2021, published 2025).

This test concerns the target acetylcholine receptor. Description: SPR, AchR immobilized on CM5 chip, peptide at 10 µM. Background: In SPR one partner is held on a chip, and binding of the other changes the refractive index at the surface.

RWRTR [5mer-418] displayed a Binding affinity (RU) of 53 RU.

The molecule RWLTR [5mer-413] yielded a Binding affinity (RU) of 56 RU.

Consider RGVTK [5mer-126], for which the Binding affinity (RU) turned out to be 61 RU. Regarding RVLQK [5mer-434], the Binding affinity (RU) is 74 RU. The result for KWICK [5mer-422] reads 87 RU; that for KGRLR [5mer-411], 66 RU. Then RVVYK [5mer-421], with 68 RU. The result for RWFLK [5mer-103] reads 62 RU; that for RRVSR [5mer-426], 57 RU.

For the molecule RVRQK [5mer-125], the Binding affinity (RU) was determined as 67 RU. Then RRFRK [5mer-130], with 80 RU; and KRLRK [5mer-113], with 79 RU. Then RRFLR [5mer-410], with 76 RU; and RVRCK [5mer-132], with 83 RU. KLLQR [5mer-106] displayed a Binding affinity (RU) of 78 RU. KRRLK [5mer-110] registered a Binding affinity (RU) of 76 RU.

KWIRR [5mer-123] showed a Binding affinity (RU) of 53 RU. Take KVIRK [5mer-100]: the Binding affinity (RU) is 80 RU. Then RGVLR [5mer-401], with 52 RU; and RQVTR [5mer-121], with 73 RU; and RQIYK [5mer-407], with 58 RU. The result for KGQRK [5mer-133] reads 84 RU; that for RGFYR [5mer-425], 80 RU. With RRLYK [5mer-403], the Binding affinity (RU) turned out to be 64 RU. In turn, RQILK [5mer-120] showed a Binding affinity (RU) of 68 RU. The result for RWLLR [5mer-115] reads 75 RU. Turning to RVYTR [5mer-419], the Binding affinity (RU) came to 67 RU. The result for RLRYR [5mer-402] reads 86 RU; that for RQVRR [5mer-432], 52 RU; that for KGFSK [5mer-124], 58 RU. Take KRQRR [5mer-114]: the Binding affinity (RU) was 82 RU. Then KSYTK [5mer-405], with 68 RU; and RGVCR [5mer-128], with 56 RU. In the case of KQIRK [5mer-119], the Binding affinity (RU) came to 60 RU. The molecule KLFCR [5mer-420] yielded a Binding affinity (RU) of 84 RU. Then RRQLK [5mer-423], with 60 RU; and KLRRR [5mer-131], with 72 RU; and RQQYR [5mer-101], with 55 RU. RSYQK [5mer-122] yielded a Binding affinity (RU) of 78 RU. Then KVQLK [5mer-431], with 81 RU; and KWIQR [5mer-399], with 62 RU; and RWICK [5mer-99], with 58 RU. The result for KRYYR [5mer-112] reads 58 RU; that for KSVLK [5mer-111], 85 RU. On to KVYLR [5mer-406], for which the Binding affinity (RU) came out at 84 RU. In turn, KWLQK [5mer-417] showed a Binding affinity (RU) of 65 RU.

The molecule KGYLK [5mer-404] registered a Binding affinity (RU) of 83 RU. The result for KWRCR [5mer-433] reads 73 RU; that for KWQLK [5mer-108], 77 RU; that for RGQQR [5mer-105], 50 RU.

With KVRCK [5mer-414], the Binding affinity (RU) was determined as 71 RU. The result for KWRTK [5mer-430] reads 80 RU; that for RQFSK [5mer-134], 61 RU. Turning to RWRSK [5mer-116], the Binding affinity (RU) turned out to be 64 RU. As for RVICK [5mer-118], the Binding affinity (RU) was 87 RU. For RLQCR [5mer-109], the Binding affinity (RU) is 68 RU. The result for RWVSR [5mer-107] reads 56 RU; that for KSQYK [5mer-429], 63 RU. The molecule RVYLK [5mer-424] showed a Binding affinity (RU) of 87 RU. KSLLK [5mer-129] yielded a Binding affinity (RU) of 63 RU. The molecule RGLYR [5mer-427] had a Binding affinity (RU) of 87 RU.

In turn, RVVLK [5mer-104] showed a Binding affinity (RU) of 74 RU. RGFSK [5mer-102] came in with a Binding affinity (RU) of 82 RU. As for KQIYK [5mer-409], the Binding affinity (RU) is 62 RU. Then KVFLR [5mer-415], with 77 RU; and RGRSR [5mer-412], with 81 RU. The result for RWVTK [5mer-127] reads 86 RU. The result for KVFRK [5mer-408] reads 74 RU; that for RWRCK [5mer-400], 70 RU. Regarding KLYLR [5mer-416], the Binding affinity (RU) worked out at 67 RU. Turning to RQFLK [5mer-428], the Binding affinity (RU) is 86 RU. In the case of RSVYK [5mer-117], the Binding affinity (RU) stood at 69 RU.
